Assay results published in patent publication US20120277161A1 (INTER K, published 2012).

Legend:
[1] = biological target: cellular Src tyrosine kinase (c-Src) (human, UniProt P12931 1-536, limits assumed); assay: cell-based or functional assay
human ERK2 = human ERK2 (human, UniProt P28482 1-360); assay: cell-based or functional assay
Chain of human ERK2 (P28482 whole entry): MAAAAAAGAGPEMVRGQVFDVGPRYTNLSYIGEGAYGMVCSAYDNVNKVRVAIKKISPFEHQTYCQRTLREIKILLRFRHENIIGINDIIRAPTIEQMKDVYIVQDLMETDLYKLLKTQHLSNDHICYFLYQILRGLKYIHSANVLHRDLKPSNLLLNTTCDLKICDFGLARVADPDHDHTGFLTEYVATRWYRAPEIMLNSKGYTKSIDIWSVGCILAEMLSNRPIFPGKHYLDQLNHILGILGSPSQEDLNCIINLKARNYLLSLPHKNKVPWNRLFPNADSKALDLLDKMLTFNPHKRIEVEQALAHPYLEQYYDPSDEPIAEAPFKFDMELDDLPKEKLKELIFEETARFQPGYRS

Row | Binder | % Inhibition of control, c-Src tyrosine kinase activity, cell-free assay, peptide at 50 µM [1] | inhibition of ERK2 activity relative to control, cell-free assay, peptide at 50 µM (human ERK2)
1 | RSKAKNPLYR [RSKAKNPLYR peptide] | 57 % inhibition | –
2 | KEKLKNPLFK [KEKLKNPLFK peptide] | 55 % inhibition | –
3 | RARAKNPLYK [RARAKNPLYK peptide] | 29 % inhibition | –
4 | RSRARNPLYR [RSRARNPLYR peptide] | 37 % inhibition | 4 % inhibition
5 | RSKAKWQTGTNPLYR [RSKAKWQTGTNPLYR peptide] | 44 % inhibition | –
6 | RSKAK [RSKAK peptide] | 3 % inhibition | –
7 | WQTGT [WQTGT peptide] | 0 % inhibition | –
8 | NPLYR [NPLYR peptide] | 0 % inhibition | –
